Target: T1, Pmt1 (protein O-mannosyltransferase 1), C-terminal 3×FLAG-tagged (S. cerevisiae, UniProt P33775 1-817, N-glycan on N390)
T1 sequence (looked up): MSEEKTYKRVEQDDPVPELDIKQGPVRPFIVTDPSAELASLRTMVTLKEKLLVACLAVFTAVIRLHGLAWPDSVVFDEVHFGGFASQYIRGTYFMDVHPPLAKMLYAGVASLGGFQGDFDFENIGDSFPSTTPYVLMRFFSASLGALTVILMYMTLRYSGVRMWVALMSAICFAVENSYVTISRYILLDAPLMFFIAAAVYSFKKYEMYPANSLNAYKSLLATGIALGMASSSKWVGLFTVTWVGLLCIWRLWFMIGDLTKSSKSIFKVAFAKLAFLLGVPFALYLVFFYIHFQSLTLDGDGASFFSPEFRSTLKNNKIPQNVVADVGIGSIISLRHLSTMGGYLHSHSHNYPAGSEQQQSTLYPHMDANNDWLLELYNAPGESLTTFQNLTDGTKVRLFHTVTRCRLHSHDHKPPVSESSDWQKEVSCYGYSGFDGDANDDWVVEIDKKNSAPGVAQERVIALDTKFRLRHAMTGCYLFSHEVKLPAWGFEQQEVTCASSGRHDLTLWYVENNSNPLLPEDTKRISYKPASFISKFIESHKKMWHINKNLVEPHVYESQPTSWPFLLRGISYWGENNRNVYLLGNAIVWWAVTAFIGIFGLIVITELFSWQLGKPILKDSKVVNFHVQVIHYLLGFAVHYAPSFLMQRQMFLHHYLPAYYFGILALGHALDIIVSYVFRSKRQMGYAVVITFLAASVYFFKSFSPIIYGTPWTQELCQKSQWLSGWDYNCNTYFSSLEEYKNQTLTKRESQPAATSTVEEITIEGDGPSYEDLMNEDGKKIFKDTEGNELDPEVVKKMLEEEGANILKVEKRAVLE
Assay: cryo-EM structure

B1: Pmt2 (protein O-mannosyltransferase 2) (enzyme, S. cerevisiae, UniProt P31382 1-759, looked up)
chain: MSSSSSTGYSKNNAAHIKQENTLRQRESSSISVSEELSSADERDAEDFSKEKPAAQSSLLRLESVVMPVIFTALALFTRMYKIGINNHVVWDEAHFGKFGSYYLRHEFYHDVHPPLGKMLVGLSGYLAGYNGSWDFPSGEIYPDYLDYVKMRLFNASFSALCVPLAYFTAKAIGFSLPTVWLMTVLVLFENSYSTLGRFILLDSMLLFFTVASFFSFVMFHNQRSKPFSRKWWKWLLITGISLGCTISVKMVGLFIITMVGIYTVIDLWTFLADKSMSWKTYINHWLARIFGLIIVPFCIFLLCFKIHFDLLSHSGTGDANMPSLFQARLVGSDVGQGPRDIALGSSVVSIKNQALGGSLLHSHIQTYPDGSNQQQVTCYGYKDANNEWFFNRERGLPSWSENETDIEYLKPGTSYRLVHKSTGRNLHTHPVAAPVSKTQWEVSGYGDNVVGDNKDNWVIEIMDQRGDEDPEKLHTLTTSFRIKNLEMGCYLAQTGNSLPEWGFRQQEVVCMKNPFKRDKRTWWNIETHENERLPPRPEDFQYPKTNFLKDFIHLNLAMMATNNALVPDPDKFDYLASSAWQWPTLNVGLRLCGWGDDNPKYFLLGTPASTWASSVAVLAFMATVVILLIRWQRQYVDLRNPSNWNVFLMGGFYPLLAWGLHYMPFVIMSRVTYVHHYLPALYFALIILAYCFDAGLQKWSRSKCGRIMRFVLYAGFMALVIGCFWYFSPISFGMEGPSSNFRYLNWFSTWDIADKQEA
modifications: N-glycan on N131
stoichiometry N: 1

— article PMC6684406 (Nature structural & molecular biology, 2019)
